In US20240295562:

Experiments:
QP47 peptide (FAAAYPDDD) = molecular target: T1, QP47 peptide (FAAAYPDDD)
T1 chain: FAAAYPDDD

IAKLDEESILKQK = molecular target: T2, IAKLDEESILKQK
T2 chain: IAKLDEESILKQK

KKLDEESILKQK = molecular target: T3, KKLDEESILKQK
T3 chain: KKLDEESILKQK

QP514 (DQQRLIFAYPDDD) = molecular target: T4, QP514 (DQQRLIFAYPDDD)
T4 chain: DQQRLIFAYPDDD

RRLDEESILKQK = molecular target: T5, RRLDEESILKQK
T5 chain: RRLDEESILKQK

WKELDEESILKQK = molecular target: T6, WKELDEESILKQK
T6 chain: WKELDEESILKQK

B1: Pyrococcus horikoshii TET II Aminopeptidase (hTET II) (protein)
chain: MEVRNMVDYELLKKVVEAPGVSGYEFLGIRDVVIEEIKDYVDEVKVDKLGNVIAHKKGEGPKVMIAAHMDQIGLMVTHIEKNGFLRVAPIGGVDPKTLIAQRFKVWIDKGKFIYGVGASVPPHIQKPEDRKKAPDWDQIFIDIGAESKEEAEDMGVKIGTVITWDGRLERLGKHRFVSIAFDDRIAVYTILEVAKQLKDAKADVYFVATVQEEVGLRGARTSAFGIEPDYGFAIDVTIAADIPGTPEHKQVTHLGKGTAIKIMDRSVICHPTIVRWLEELAKKHEIPYQLEILLGGGTDAGAIHLTKAGVPTGALSVPARYIHSNTEVVDERDVDATVELMTKALENIHELKI
RSC (rapid sequential cleavage) population, protein sequencing assay with hTETII (1 µM) (QP47 peptide (FAAAYPDDD)): RSC population is ~40%

B2: AP30 (protein)
chain: MEVRNMVDYELLKKVVEAPGVSGYEFLGIRDVVIEEIKDYVDEVKVDKLGNVIAHKKGEGPKVMIAAHMDQIGLMVTHIEKNGFLRVAPIGGVDPKTLIAQRFKVWIDKGKFIYGVGASVPPHIQKPEDRKKAPDWDQIFIDIGAESKEEAEDMGVKIGTVITWDGRLERLGKHRFVSIAFDDRIAVYTILEVAKQLKDAKADVYFVATVQEEVGLRGARTSAFGIEPDYGFAIDVTIAADIPGTPEHKQVTHLGKGTAIKIMDRSVICHPTIVRWLEELAKKHEIPYQLEILLGGGTDAGAIHLTKAGVPTGALSVPARYIHSNTEVVDERDVDATVELMTKALENIHELKIGGSHHHHHHHHHHGGGSGGGSGGGSGLNDFFEAQKIEWHEGGGSGGGSGGGSGLNDFFEAQKIEWHE
RSC (rapid sequential cleavage) population, protein sequencing assay with AP30 (5 µM) (QP47 peptide (FAAAYPDDD)): The RSC population with AP30 was only ~25%

B3: AP37 (protein)
chain: MDLKGGESMVDWKLMQEIIEAPGVSGYEHLGIRDIVVDVLKEVADEVKVDKLGNVIAHFKGSSPRIMVAAHMDKIGVMVNHIDKDGYLHIVPIGGVLPETLVAQRIRFFTEKGERYGVVGVLPPHLRRGQEDKGSKIDWDQIVVDVGASSKEEAEEMGFRVGTVGEFAPNFTRLNEHRFATPYLDDRICLYAMIEAARQLGDHEADIYIVGSVQEEVGLRGARVASYAINPEVGIAMDVTFAKQPHDKGKIVPELGKGPVMDVGPNINPKLRAFADEVAKKYEIPLQVEPSPRPTGTDANMQINREGVATAVLSIPIRYMHSQVELADARDVDNTIKLAKALLEELKPMDFTPGHHHHHHHHHH
Percent N-Terminal Residue Cut (HPLC assay), AP37 after conditioning, 1 µM (IAKLDEESILKQK): 74% | Percent N-Terminal Residue Cut (HPLC assay), AP37 after conditioning, 10 µM (IAKLDEESILKQK): 100% | Percent N-Terminal Residue Cut (HPLC assay), AP37 before conditioning, 1 µM (IAKLDEESILKQK): 13% | Percent N-Terminal Residue Cut (HPLC assay), AP37 before conditioning, 10 µM (IAKLDEESILKQK): 57% | Percent N-Terminal Residue Cut (HPLC assay), AP37 after conditioning, 1 µM (KKLDEESILKQK): 61% | Percent N-Terminal Residue Cut (HPLC assay), AP37 after conditioning, 10 µM (KKLDEESILKQK): 100% | Percent N-Terminal Residue Cut (HPLC assay), AP37 before conditioning, 1 µM (KKLDEESILKQK): 11% | Percent N-Terminal Residue Cut (HPLC assay), AP37 before conditioning, 10 µM (KKLDEESILKQK): 71% | cleavage of arginine in protein sequencing assay, AP37 (40 µM) alone (QP514 (DQQRLIFAYPDDD)): AP37 shows better efficiency cleaving arginine than PfuTET when alone | Percent N-Terminal Residue Cut (HPLC assay), AP37 after conditioning, 1 µM (RRLDEESILKQK): 70% | Percent N-Terminal Residue Cut (HPLC assay), AP37 after conditioning, 10 µM (RRLDEESILKQK): 100% | Percent N-Terminal Residue Cut (HPLC assay), AP37 before conditioning, 1 µM (RRLDEESILKQK): 8% | Percent N-Terminal Residue Cut (HPLC assay), AP37 before conditioning, 10 µM (RRLDEESILKQK): 26% | Percent N-Terminal Residue Cut (HPLC assay), AP37 after conditioning, 1 µM (WKELDEESILKQK): 97% | Percent N-Terminal Residue Cut (HPLC assay), AP37 after conditioning, 10 µM (WKELDEESILKQK): 99% | Percent N-Terminal Residue Cut (HPLC assay), AP37 before conditioning, 1 µM (WKELDEESILKQK): 18% | Percent N-Terminal Residue Cut (HPLC assay), AP37 before conditioning, 10 µM (WKELDEESILKQK): 55%
